# Measurements: patent US11723968B2
# Columns and labels:
# [1] = target: Andes virus glycoprotein Gc, wild type (Andes virus (Andes orthohantavirus CHI-7913 isolate))
# [2] = target: Andes virus glycoprotein Gc, wild type (Andes virus (Andes orthohantavirus CHI-7913 isolate)); remark: listed apart in the source
substance,measurement,setting,value
"Andes virus glycoprotein Gn, wild type",melting temperature (Tm) of the temperature-induced Gn/Gc dissociation,[1],37.7 ° C.
same,melting temperature (Tm) of (Gn/Gc)4 dissociation,[2],36.3 ° C.
